Columns and labels:
A549 cells = experiment: Viability of A549 cells treated with Shh antibodies ± GLI inhibitor 249C; assay type: cell-based, human; settings: for Cell viability of A549 cells: 249C at 40 nM where added
Description: The effect of the C-terminal Shh antibodies from clones 2G4 and 2D9 on the viability of A549 cells was determined. A549 cells were exposed to increasing concentrations of the C-terminal Shh antibodies (2G4, 2D9), or antibodies against the N-terminal portion of Shh protein (6D3, 2E1), and the effective dose (ED50) was determined (assay 1: FIG. 16A; assay 2: FIG. 16B). […] Possibly due to the fact that very few cells express full-length Shh on the cell surface, the cytotoxic effect of the C-terminal Shh antibodies was not as potent as the cytotoxic effect of the N-terminal antibodies.
Next, the cytotoxicity of the C-terminal Shh antibodies was tested when the antibodies were used in conjunction with a small-molecule inhibitor of GLI zinc-finger transcription factor signaling, 249C (4-(5-chlorofuran-2-yl)-1,3-bis(2,4-difluorophenyl)-5-methyl-N-((4-methylmorpholin-2-yl)methyl)-4,5-dihydro-1H-pyrazole-5-carboxamide; Compound 135 above). A549 cells were exposed to varying concentrations of the C-terminal antibodies (2G4, 2D9) or the N-terminal antibodies (6D3, 2E1), in the presence or absence of a very low dose (40 nM) of 249C. (The IC50 of 249C in A549 cells is ˜70 nM.)

[1] = test system: Shh 247-264 AA and Shh 448-462 AA peptides; experiment: Biolayer interferometry (Octet RED 384) with Shh peptide-mimic ligands; assay type: binding, human; settings: 37-3000 nM peptides; versus IgG control antibody
Description: Antibody immobilization was checked via Octet® Software (ForteBio) prior to introduction of increasing concentrations (37, 111, 333, 1000, 3000 nM) of Sonic Hedgehog peptide-mimic ligands (Shh 247-264 AA and Shh 448-462 AA). Graphical output from the Octet® Software of representative data from two independent experiments is presented.

NSCLC A549 cells = experiment: CellTiter-Glo cell viability assay, A549; assay type: cell-based, human; settings: 96 hours, compared with controls
Description: Logarithmically growing cells were plated in antibiotic-free medium supplemented with 2% fetal bovine serum at a density of 5,000 cells per well in clear-bottom 96-well plates. The next day cells were treated (triplicates) with increasing doses of in-house therapeutic antibodies (reconstituted in PBS) or PBS controls for 96 hours and subsequently assessed for cell viability by measuring ATP content with CellTiter-Glo Luminescent Cell Viability Assay (Promega). Signal intensity was measured on a Glomax™ 96 Microplate Luminometer (Promega) and percent cell survival was calculated based on the reading of PBS control cells set as 100%.

[2] = test system: A549-derived NSCLC xenografts; experiment: Antitumor efficacy in NSCLC A549 xenograft model (8 mg/kg); assay type: in vivo, mice; settings: 3 times a week for 3 weeks, versus control IgG
Description: 7-week old female nude mice (Jackson Laboratories) were injected with 10×10^6 NSCLC A549 cells in 50% matrigel in the flank region. […] 8 mg/kg therapeutic or control antibodies were administered three times a week for approximately 3 weeks. Tumor volumes were calculated using the formula (V=L×W^2) with recorded caliper measurements. At the end point, tumors were harvested, weighed and imaged. All animal procedures were performed under IACUC-approved protocols and guidelines.

Shh protein = experiment: Ex vivo Shh staining of excised A549 xenograft tumors; assay type: in vivo, mice
Description: The in vivo effect of the C-terminal Shh antibodies were tested using the A549 cell subcutaneous xenograft tumor model in mice, as described in Example 1. After xenograft formation, animals were intra-tumor injected with a C terminal Shh antibody (2G4 or 2D9; each at 158 μg), or a control solution, 3 times a week for about 3 weeks (at 2-3 day intervals). Tumor volume was determined, as described in Example 1, every 2 days. Weight and size of the excised tumor were determined after the antibody treatment. A portion of the excised tumor was sectioned for immunohistochemical analysis of Shh protein expression, and RNA was extracted from another portion of the excised tumor for analysis of Gli1 expression.
Control IgG and Ab 1C11-2G4-treated A549 tumors harvested from mice were sectioned ([…]) and stained with a commercially available Sonic Hedgehog (Shh) antibody (Abcam 53281, 1:100) post acetone fixation, 0.2% Triton-X 100 permeabilization and serum blocking steps. A FITC-conjugated secondary antibody (1:1000) and […] DAPI (Vector Laboratories) mounting medium were used to stain sections prior to imaging at 20× magnification using a Zeiss Axiolmager 2 fluorescence microscope. Captured images were processed via ImageJ software (available at https://imagej.nih.gov/ij/download.html) and representative images are presented.
To assess the effects of antibody administration on hedgehog epitope occupancy, tumors were sectioned and stained with a commercial antibody specific for sonic hedgehog (Shh). […] Confirmatory results were observed when ground up permeabilized tumor cells were labeled with the commercially available Shh antibody and assessed using flow cytometry; 1C11-2G4-treated tumors (20%-Shh-labeled) contrasted with IgG controls (80%-Shh-labeled) (FIG. 46B).

B1: 2G4: purified mouse monoclonal C-terminal Shh antibody from hybridoma sub-clone 2G4 of clone 1C11, IgG1 kappa (antibody, V domains shown)
VH: EVKLVESGGGLVKPGGSLKLSCAASGFTFSSYTMSWVRQTPAKRLEWVATISSGGGNTYYPDSVKGRFTISRDNARNTLYLQMSSLRSEDTAMYYCARDYRSLFAYWGQGTLVTVSA
VL: QIVLTQSPAIMSASPGEKVTITCSASSSVSYMHWFQQKPGTSPKLWIYSTSNLASGVPARFSGSGSGTSYSLTISRMEAEDAATYYCQQRSSYPFTFGSGTKLEIK
With B1 the “Cell viability of A549 cells” value (A549 cells; Ab conc. 32 ng/mL) was 99%, the “Cell viability of A549 cells” value (A549 cells; Ab conc. 64 ng/mL) was 95% and the “Cell viability of A549 cells” value (A549 cells; Ab conc. 128 ng/mL) was 91%. The “synergy with a GLI inhibitor in reducing viability of non-small cell lung cancer cells” value (A549 cells; with 249C at 40 nM) was “act synergistically”, the “binding response to Shh peptide-mimic ligands (BLI)” value [1] was “increases in binding response” and the “A549 tumor cell proliferation / cell viability” value (NSCLC A549 cells) was “marginally stronger anti-proliferative capacity”. The tumor volume [2] was “significant reduction in tumor volume”, the “tumor weight of harvested tumors” value [2] was “decrease in tumor weight” and the “cells expressing Shh protein in excised tumor (immunostaining)” value (Shh protein; intra-tumor antibody 158 μg, compared to control tumor samples) was “fewer cells expressing Shh protein”. For the same molecule, the “number of Shh-labeled cells in permeabilized tumor sections (immunofluorescence)” value (Shh protein; tumors after 8 mg/kg treatment, versus IgG controls) was “significant reduction in the number of Shh-labeled cells” and the “Shh-labeled cells in ground up permeabilized tumor cells (flow cytometry, commercial Shh antibody)” value (Shh protein; tumors after 8 mg/kg treatment, IgG controls 80%) was 20%.
